Key:
[1] = biological target: Andes virus glycoprotein Gc, wild type (Andes virus (Andes orthohantavirus CHI-7913 isolate))
[2] = biological target: Andes virus glycoprotein Gc, wild type (Andes virus (Andes orthohantavirus CHI-7913 isolate)); remark: listed apart in the source

For Andes virus glycoprotein Gn, wild type, the melting temperature (Tm) of the temperature-induced Gn/Gc dissociation [1] was 37.7 ° C and the melting temperature (Tm) of (Gn/Gc)4 dissociation [2] was 36.3 ° C.

— patent US11723968B2
